Results on two molecules are retold here after US20110293610A1 (published 2011).

The target in assay [1] is T1, Bovine serum albumin (bovine, UniProt P02769 25-607).
T1 construct: also called BSA
In words: phage ELISA. In general terms: In an ELISA, binding on a coated surface is turned into a signal by an enzyme label.

Assay [2] deals with T2, TNF-alpha (human, UniProt P01375 77-233).
T2 construct: also called TNFα; TNF-α
In words: phage ELISA.

Assay [3] addresses LIGHT (human, UniProt O43557 74-240, limits assumed). In words: phage ELISA.
In assay [4] the target is T3, TNF-beta (human, UniProt P01374 35-205).
T3 construct: also called TNFβ; Tumour Necrosis Factor-beta
T3 sequence (looked up): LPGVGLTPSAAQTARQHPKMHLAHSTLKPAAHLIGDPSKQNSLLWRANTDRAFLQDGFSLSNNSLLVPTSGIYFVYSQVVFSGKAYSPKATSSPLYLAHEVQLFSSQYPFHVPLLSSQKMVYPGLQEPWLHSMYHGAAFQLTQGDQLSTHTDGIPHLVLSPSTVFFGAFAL
In words: phage ELISA.

The target of assay [5] is T4, TRAIL (human, UniProt P50591 114-281).
T4 construct: also called TNF-related apoptosis inducing ligand
In words: phage ELISA.

The target in assay [6] is T5, B Lymphocyte Stimulator, soluble form (human) (human, UniProt Q9Y275 134-285, biotinylated with NHS-biotin where used as biotinylated B Lymphocyte Stimulator).
T5 construct: Coated on plastic, captured on streptavidin plates, amine-coupled to a CM5 chip or free in solution, depending on the assay; also called BLyS; immobilized B Lymphocyte Stimulator
In words: phage ELISA, biotinylated BLyS on streptavidin plates.

For assay [7], the target named is T6, biotinylated B Lymphocyte Stimulator, soluble form (human, UniProt Q9Y275 134-285, biotinylated with NHS-biotin, molar ratio 20:1 biotin:protein).
T6 construct: also called bio-B Lymphocyte Stimulator; free B Lymphocyte Stimulator
In words: purified scFv, receptor binding inhibition on IM9 cells.

T2 sequence (P01375 77-233 limits assumed): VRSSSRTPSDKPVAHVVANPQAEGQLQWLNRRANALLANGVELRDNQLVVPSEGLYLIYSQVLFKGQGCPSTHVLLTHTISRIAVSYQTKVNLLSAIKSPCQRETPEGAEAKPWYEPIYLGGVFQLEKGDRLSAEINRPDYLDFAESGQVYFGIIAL
T4 sequence (P50591 114-281 limits assumed): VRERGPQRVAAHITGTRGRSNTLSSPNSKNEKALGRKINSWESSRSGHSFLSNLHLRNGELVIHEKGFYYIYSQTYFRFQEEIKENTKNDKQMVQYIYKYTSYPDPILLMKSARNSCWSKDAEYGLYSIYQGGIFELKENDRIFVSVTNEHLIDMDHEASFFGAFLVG
Sequence of LIGHT (O43557 74-240 limits assumed): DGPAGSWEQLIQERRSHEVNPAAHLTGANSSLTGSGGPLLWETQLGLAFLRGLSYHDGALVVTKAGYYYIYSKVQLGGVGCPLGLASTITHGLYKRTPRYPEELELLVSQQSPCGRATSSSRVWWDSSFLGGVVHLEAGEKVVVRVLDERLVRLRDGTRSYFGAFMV
T1 sequence (P02769 25-607 limits assumed): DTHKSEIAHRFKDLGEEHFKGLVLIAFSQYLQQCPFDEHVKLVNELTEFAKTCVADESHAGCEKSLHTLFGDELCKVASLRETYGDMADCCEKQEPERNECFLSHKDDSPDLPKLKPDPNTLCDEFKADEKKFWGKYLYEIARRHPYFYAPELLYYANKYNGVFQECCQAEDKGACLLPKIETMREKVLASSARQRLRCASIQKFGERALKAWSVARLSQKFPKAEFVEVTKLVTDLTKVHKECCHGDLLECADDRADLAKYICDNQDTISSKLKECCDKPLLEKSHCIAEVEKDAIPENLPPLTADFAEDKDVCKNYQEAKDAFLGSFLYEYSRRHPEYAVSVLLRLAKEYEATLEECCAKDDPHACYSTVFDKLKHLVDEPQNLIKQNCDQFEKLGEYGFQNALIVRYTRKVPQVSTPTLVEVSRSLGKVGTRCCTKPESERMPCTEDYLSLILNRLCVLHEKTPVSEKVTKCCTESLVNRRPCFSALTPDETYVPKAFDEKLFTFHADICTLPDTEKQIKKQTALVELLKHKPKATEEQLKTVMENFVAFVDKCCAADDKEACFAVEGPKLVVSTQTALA

B1: I075F12 (scFv)
scFv: QVQLVQSGAEVKKPGSSVKVSCKASGGTVSSRTISWVRQAPGQGLEWMGGSLPPSGAPIYAQKFQGRVAITADALTNTAFMELRSLKSDDTAVYYCARDQGRYLDLWGQGTMVTVSSGGGGSGGGGSGGGGSAQAVLTQPSSASGTPGQRATISCSGSSSDIGINAVNWYKQLPRTAPKLLIYRNNQRPSGVPDRFSGSKSGTSASLAIIGLQSEDEADYYCATWDDSLTAYVFGTGTKVTVLG
On to B1, for which the binding result in assay [1] was “no binding”; in assay [2], “no binding”; in assay [3], “no binding”; in assay [4], “no binding”; in assay [5], “no binding”; in assay [6] it was “binds”.

B2: I003F12S (scFv)
scFv: QVQLLQSAAELKKPGQSLKISCKGSGFTFTTYWIGWVRQLPGKGLEWMGIIYPGDSHTTYSPSFEGHVNISVDKSINTAYLQWSSLKASDTAMYYCARHDDDVLTGYYFESWGQGTMVTVSSGGGGSGGGGSGGGGSQSVLTQPASVSGSPGQSITISCTGTSSDVGGYNYVSWYQQHPGKAPKLMIYEGSKRPSGVSNRFSGSKSGNTASLTISGLQAEDEADYYCSSYTTRSTRVFGGGTKLTVLG
Take B2: the binding result in assay [7] is “binds”.
